Test results reported in patent US6465220B1, “Glycosylation using GalNac-T4 transferase” (GlycoZym ApS, priority 1998, dated 2002).
Like-named read-outs stand apart in the source and are kept apart here. Values belong to the molecule of their own block, whether it stands above or below them. Ends that are not written are not given here.

Tests used:
[1] = target: T1, GalNAc-T2 (Homo sapiens, UniProt Q10471); assay: GalNAc-transferase assay with purified recombinant GalNAc-T2; type: biochemical
T1 construct: Control constructs pAcGP67-GalNAc-T1-sol, pAcGP67-GalNAc-T2-sol, pAcGP67-GalNAc-T3-sol, and pAcGP67-O^2-sol were prepared as previously described; made in house; host or cells: insect cells (baculovirus, pAcGP67)
Method: (§1) The following examples are provided to illustrate certain preferred embodiments of the invention, and should be considered as illustration and not as limitation. In the examples, GalNAc-transferase assays were performed in 50 μl total reaction mixtures containing 25 mM cacodylate (pH 7.5), 10 mM MnCl2, 0.1-0.25% Triton X-100, 150-200 μM UDP-[^14C]-GalNAc (4,000 cpm/nmole) (Amersham) and 0.06-1 mM acceptor peptides. Peptides were either synthesized or obtained from Carlbiotech (Copenhagen), or Neosystems (Strasbourg), and quality was ascertained by amino acid analysis and mass spectrometry. Peptides Muc-1a, Muc-1b, and TAP24, were derived from the tandem repeat of human MUC1, Gendler et al., J. Biol. Chem. 265:15286 (1990), and Muc2, Muc5AC, and Muc7 from the tandem repeats of MUC2, MUC5AC, and MUC7, respectively. Gum et al., J. Biol. Chem. 264:6480 (1989); Porchet et al., Biochem. Soc. Trans. 23:800 (1995); Bobek et al., J. Biol. Chem. 268:20563 (1993). GalNAc4TAP24 was produced by in vitro glycosylation using GalNAc-T2 as described in Wandall et al., J. Biol. Chem. 272:23503 (1997). Products were quantified by scintillation counting after chromatography on Dowex-1, octadecyl silica cartridges (Bakerbond), or HPLC (PC3.2/3 or mRPC C2/C18 SC2.1/10 Pharmacia, Smart System). Products produced by in vitro glycosylation were in most cases also confirmed by mass spectrometry.
(§2) In this example, GalNAc-T4 was expressed in Sf9 insect cells. Expression constructs designed to contain amino acid residues 32-578 of the coding sequence of the putative GalNAc-T4 gene shown in SEQ ID NO:1 prepared by genomic PCR of two clones containing GalNAc-T4 (described in Bennett et al. (1998), supra) were cloned into a BamHI site of the expression vector pAcGP67 (Pharmingen), and the expression construct was sequenced. The constructs pAcGP67-GalNAc-T4506Vsol and pAcGP67-GalNAc-T4506 I sol, were designed to yield a putative soluble form of the GalNAc-T4 protein with an N-terminal end positioned immediately C-terminal to a potential transmembrane domain and including the entire sequence expected to contain the catalytic domain. Control constructs pAcGP67-GalNAc-T1-sol, pAcGP67-GalNAc-T2-sol, pAcGP67-GalNAc-T3-sol, and pAcGP67-O^2-sol were prepared as previously described in White et al., J. Biol. Chem 270:24156 (1995); Bennett et al., J. Biol. Chem. 271:17006 (1996); and Bennett et al., Biochem. Biophys. Res. Comm. 211:347 (1995).
Activities measured with the mucin derived substrates, Muc7, EA2, and Muc2 (see Table I for structures and SEQ ID NOs:19, 25 and 18, respectively), were only 2-7 fold over background values. Very low activities with a few other substrates were also observed, but for many of the “mucin-like” substrates a relative high background with Sf9 cells infected with irrelevant constructs made assessment difficult. GalNAc-T4 was expressed in High Five cells and purified to near homogeneity, however, very low endogenous activity was detected with some substrates in the same fractions when medium from cells infected with irrelevant expression constructs were used in the same purification strategy. The activities presented in Table I were obtained with purified GalNAc-T4 and -T2, and are expressed as mU/mg (the concentration of enzyme protein estimated by SDS-PAGE using BSA as standard). The highest activities with GalNAc-T4 were found from assays of Sf9 medium with the mucin peptides Muc7, EA2, and Muc2, however, the efficiencies with these substrates were considerably lower than GalNAc-T2.

[2] = target: T2, GalNAc-T3 (Homo sapiens, UniProt Q14435); assay: GalNAc-transferase assay with purified recombinant GalNAc-T3; type: biochemical
T2 construct: Control constructs pAcGP67-GalNAc-T1-sol, pAcGP67-GalNAc-T2-sol, pAcGP67-GalNAc-T3-sol, and pAcGP67-O^2-sol were prepared as previously described; made in house; host or cells: insect cells (baculovirus, pAcGP67)
T2 sequence (Q14435 38-633 limits assumed): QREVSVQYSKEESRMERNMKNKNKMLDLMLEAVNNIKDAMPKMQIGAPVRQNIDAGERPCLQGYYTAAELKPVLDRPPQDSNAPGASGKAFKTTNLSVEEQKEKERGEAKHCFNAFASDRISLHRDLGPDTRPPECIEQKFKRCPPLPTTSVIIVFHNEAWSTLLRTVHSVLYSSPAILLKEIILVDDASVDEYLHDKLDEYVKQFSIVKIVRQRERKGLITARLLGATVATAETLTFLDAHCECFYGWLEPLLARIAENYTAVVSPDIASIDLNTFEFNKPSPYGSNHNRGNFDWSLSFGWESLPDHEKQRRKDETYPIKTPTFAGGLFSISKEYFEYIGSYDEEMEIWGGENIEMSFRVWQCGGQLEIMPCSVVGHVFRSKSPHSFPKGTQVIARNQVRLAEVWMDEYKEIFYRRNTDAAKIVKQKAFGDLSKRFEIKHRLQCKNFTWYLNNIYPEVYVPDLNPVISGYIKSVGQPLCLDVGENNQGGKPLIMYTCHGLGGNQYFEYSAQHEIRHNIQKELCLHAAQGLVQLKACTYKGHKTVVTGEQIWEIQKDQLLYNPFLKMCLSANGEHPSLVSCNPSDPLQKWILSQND
Method: as §1, §2

[3] = target: T3, GalNAc-T1 (Homo sapiens, UniProt Q10472); assay: GalNAc-transferase assay with purified recombinant GalNAc-T1; type: biochemical; conditions: acceptor substrate
T3 construct: Control constructs pAcGP67-GalNAc-T1-sol, pAcGP67-GalNAc-T2-sol, pAcGP67-GalNAc-T3-sol, and pAcGP67-O^2-sol were prepared as previously described; made in house; host or cells: insect cells (baculovirus, pAcGP67)
T3 sequence (Q10472 41-559 limits assumed): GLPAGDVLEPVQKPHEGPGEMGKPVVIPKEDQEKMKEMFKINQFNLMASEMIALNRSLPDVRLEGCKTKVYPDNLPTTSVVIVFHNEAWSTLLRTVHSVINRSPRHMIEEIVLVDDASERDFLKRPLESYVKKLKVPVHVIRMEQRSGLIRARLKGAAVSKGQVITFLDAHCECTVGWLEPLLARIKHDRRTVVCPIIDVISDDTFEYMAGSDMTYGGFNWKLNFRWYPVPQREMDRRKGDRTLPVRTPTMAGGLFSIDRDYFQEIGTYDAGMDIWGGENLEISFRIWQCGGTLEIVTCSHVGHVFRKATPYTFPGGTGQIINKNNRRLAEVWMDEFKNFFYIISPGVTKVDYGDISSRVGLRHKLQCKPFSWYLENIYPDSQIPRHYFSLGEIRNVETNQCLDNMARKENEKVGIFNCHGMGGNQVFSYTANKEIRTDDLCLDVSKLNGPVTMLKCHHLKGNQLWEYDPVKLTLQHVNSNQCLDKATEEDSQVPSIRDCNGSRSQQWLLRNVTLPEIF
Method: as §1
In this example, GalNAc-T4 was expressed in Sf9 insect cells. Expression constructs designed to contain amino acid residues 32-578 of the coding sequence of the putative GalNAc-T4 gene shown in SEQ ID NO:1 prepared by genomic PCR of two clones containing GalNAc-T4 (described in Bennett et al. (1998), supra) were cloned into a BamHI site of the expression vector pAcGP67 (Pharmingen), and the expression construct was sequenced. […]

[4] = target: T4, GalNAc-T4 (Homo sapiens, UniProt Q8N4A0); assay: GalNAc-transferase assay with purified recombinant GalNAc-T4; type: biochemical; conditions: for GalNAc-T4 activity with substrate (in words): purified GalNAc-T4
T4 construct: made in house; host or cells: High Five insect cells (baculovirus, pAcGP67 vector)
Method: as §1, with “In” for “The following examples are provided to illustrate certain preferred embodiments of the invention, and should be considered as illustration and not as limitation. In”
as §2, with “Control constructs pAcGP67-GalNAc-T1-sol, pAcGP67-GalNAc-T2-sol, pAcGP67-GalNAc-T3-sol, and pAcGP67-O^2-sol were prepared as previously described in White et al., J. Biol. Chem 270:24156 (1995); Bennett et al., J. Biol. Chem. 271:17006 (1996); and Bennett et al., Biochem. Biophys.” left out
The activities presented in Table I were obtained with purified GalNAc-T4 and -T2, and are expressed as mU/mg (the concentration of enzyme protein estimated by SDS-PAGE using BSA as standard).

[5] = target: T3, GalNAc-T1; conditions: donor substrate; data from Wandall et al.; cited from earlier work
[6] = target: T2, GalNAc-T3; conditions: donor substrate; data from Wandall et al.; cited from earlier work
[7] = target: T1, GalNAc-T2; conditions: donor substrate; data from Wandall et al.; cited from earlier work

Molecule: QATEYEYLDYDFLPEC [PSGL-1a]
GalNAc-T2 activity with acceptor peptide ([1]; 0.06 mM peptide in 50-μl assay): 0.0 milliunits/mg
GalNAc-T2 activity with acceptor peptide ([1]; 0.25 mM peptide in 50-μl assay): 0.0 milliunits/mg
GalNAc-T4 activity with substrate (in words) [4]: not

Molecule: RPAPGSTAPPA [Muc1b′, peptide derived from the tandem repeat of human MUC1]
GalNAc-T2 activity with acceptor peptide ([1]; 0.25 mM peptide in 50-μl assay): 198 ± 9 milliunits/mg
GalNAc-T2 activity with acceptor peptide ([1]; 1 mM peptide in 50-μl assay): 582 ± 9 milliunits/mg
GalNAc-T4 activity with acceptor peptide ([4]; 0.25 mM peptide in 50-μl assay): 0.7 ± 0.5 milliunits/mg
GalNAc-T4 activity with acceptor peptide ([4]; 1 mM peptide in 50-μl assay): 0.9 ± 0.8 milliunits/mg
GalNAc-T4 activity with substrate (in words) [4]: somewhat poor activities

Molecule: CC(=O)N[C@H]1[C@@H](OP(=O)(O)OP(=O)(O)OC[C@H]2O[C@@H](n3ccc(=O)[nH]c3=O)[C@H](O)[C@@H]2O)O[C@H](CO)[C@H](O)[C@@H]1O [UDP-GalNAc, UDP-N-acetylgalactosamine]
Km [5]: 62 µM
Km ([4]; donor substrate, saturating concentration of Muc7 as substrate, read-out: Km GalNAc-T4): 160 µM
Km ([4]; using the Muc7 acceptor substrate, read-out: Km of purified GalNAc-T4 for UDP-GalNAc): 160 µM
Km [6]: 29 µM
Km [7]: 10 µM

Molecule: PTTTPISTTTMVTPTPTPTC [Muc2, peptide from the tandem repeats of MUC2]
GalNAc-T2 activity with acceptor peptide ([1]; 0.06 mM peptide in 50-μl assay): 169 ± 2 milliunits/mg
GalNAc-T2 activity with acceptor peptide ([1]; 0.25 mM peptide in 50-μl assay): 128 ± 5 milliunits/mg
GalNAc-T4 activity with acceptor peptide ([4]; 0.06 mM peptide in 50-μl assay): 9 ± 0.5 milliunits/mg
GalNAc-T4 activity with acceptor peptide ([4]; 0.25 mM peptide in 50-μl assay): 29 ± 0.8 milliunits/mg

Molecule: CC(=O)N[C@H]1[C@@H](OP(=O)(O)OP(=O)(O)OC[C@H]2O[C@@H](n3ccc(=O)[nH]c3=O)[C@H](O)[C@@H]2O)O[C@H](CO)[C@@H](O)[C@@H]1O [UDP-GlcNAc]
incorporation with alternative donor substrate ([4]; Muc7 acceptor peptide): No incorporation

Molecule: PRFQDSSSSKAPPPSLPSPSRLPG [hCG-β]
GalNAc-T2 activity with acceptor peptide ([1]; 0.06 mM peptide in 50-μl assay): 22 ± 0.5 milliunits/mg
GalNAc-T2 activity with acceptor peptide ([1]; 0.25 mM peptide in 50-μl assay): 74 ± 2 milliunits/mg

More lines, now with the values ahead:

Km ([1]; acceptor substrate): > 2000 µM
Km ([2]; acceptor substrate): > 2000 µM
Km [3]: > 2000 µM
Molecule: Ac-QATEYEYLDYDFLPETEPPEM [PSGL-1b]

GalNAc-T2 activity with acceptor peptide ([1]; 0.25 mM peptide in 50-μl assay): 28 ± 5 milliunits/mg
GalNAc-T2 activity with acceptor peptide ([1]; 1 mM peptide in 50-μl assay): 83 ± 2 milliunits/mg
specific activity of GalNAc-T3 ([2]; with Muc1a): 0.5 U/mg
GalNAc-T4 activity with acceptor peptide ([4]; 0.25 mM peptide in 50-μl assay): 2 ± 0.4 milliunits/mg
GalNAc-T4 activity with acceptor peptide ([4]; 1 mM peptide in 50-μl assay): 6.7 ± 1 milliunits/mg
GalNAc-T4 activity with substrate (in words) [4]: somewhat poor activities
Molecule: AHGVTSAPDTR [Muc1a′, peptide derived from the tandem repeat of human MUC1]

GalNAc-T2 activity with acceptor peptide ([1]; 0.06 mM peptide in 50-μl assay): 152 ± 3 milliunits/mg
GalNAc-T2 activity with acceptor peptide ([1]; 0.25 mM peptide in 50-μl assay): 376 ± 5 milliunits/mg
Km ([1]; acceptor substrate): 850 µM
Vmax GalNAc-T2 ([1]; acceptor substrate): 1.80 nmol/min/µg
Km ([2]; acceptor substrate): 460 µM
Vmax GalNAc-T3 ([2]; acceptor substrate): 0.96 nmol/min/µg
GalNAc-T4 activity with acceptor peptide ([4]; 0.06 mM peptide in 50-μl assay): 15 ± 0.1 milliunits/mg
GalNAc-T4 activity with acceptor peptide ([4]; 0.25 mM peptide in 50-μl assay): 42 ± 4 milliunits/mg
Vmax GalNAc-T4 ([4]; acceptor substrate): 0.44 nmol/min/µg
Km ([4]; acceptor substrate, read-out: Km GalNAc-T4): 2190 µM
Km [3]: 70 µM
Vmax GalNAc-T1 [3]: 0.99 nmol/min/µg
Molecule: DSTTPAPTTK [EA2, mucin derived substrate]
